According to US20260275317A1, “CHIMERIC ENDOLYSINS WITH ACTIVITY AGAINST STREPTOCOCCI AND STAPHYLOCOCCI” (UNIVERSITEIT GENT, priority 2023, published 2026):

Experiments:
MAC-T cells = assay type: cell-based, bovine; conditions: 2.5 μM
Experimental: MAC-T cells were seeded in a 6-well plate at 300.000 cells/well and grown to 100% confluency. Next, cell culture medium was replaced by prewarmed NC5 in DMEM (buffer exchange performed at 4-8° C. by means of a Pierce™ Protein Concentrator PES 10 kDa MWCO) and allowed to incubate during 1 h at 37° C. and 5.0% CO2. DMEM alone served as the negative control. Following incubation, the supernatant was aspirated and cells were washed 5× with prewarmed dPBS. Cells were then harvested, pelleted and washed as previously described, followed by lysis in ice-cold 0.1% triton X-100 (Sigma-Aldrich, USA) in dPBS. The cell lysates were denaturized and subjected to SDS-PAGE before blotting to a nitrocellulose membrane (Novolab, Belgium). The membrane was thereafter incubated during 1 h in dPBSM5 as blocking buffer. Subsequently, the primary antibody being mouse monoclonal IgG anti-HIS5 (Sigma-Aldrich, USA) was added to the blocking buffer at 1:2000 and allowed to incubate under the same conditions for another hour. The nitrocellulose membrane was then washed 3× with dPBST and incubated during 30 min with the secondary antibody being HRP conjugated goat monoclonal anti-mouse IgG (ImTec Diagnostics, Belgium) diluted 1:1000 in dPBST. […]

[1] = test system: stationary phase S. uberis; test: Turbidity reduction assay (TRA), S. uberis; assay type: cell-based, Streptococcus uberis
Experimental: (§1) Concerning the time killing assay, an overnight bacterial culture was diluted 1:10 for S. uberis, S. agalactiae-& dysgalactiae or 1:100 for S. aureus in PBS or UHT-pasteurized whole cow's milk. A volume of 10 μL thereof was combined with an equal amount of chimeric endolysin in PBS (or only PBS as negative control) in triplicate and incubated in a covered 96-well microtiter plate at 37° C. for 2 h. The dose was low (i.e. 0.25 μM), but this was chosen to differentiate between less and better performing variants, consequently allowing a ranking. Finally, these fractions were serially diluted 1:10 in PBS. 5 μL of each fraction was spotted on TSA or BHI-agar and incubated overnight at 37° C. The following day, colony forming units (CFU) were counted and converted to CFU/mL to calculate logarithmic reductions in comparison with the negative control. The relative scores were calculated by dividing the observed logarithmic reduction for each endolysin by the maximal reduction observed for that specific condition and strain. Next, this value was divided by the number of conditions and strains tested (i.e., 8=4 bacterial strains×2 conditions (PBS/UHT-milk)). As such, the best performing candidate in each individual assay received a score of 0.125 (=(1/1)/8). […] Turbidity reduction assays were performed by combining 100 μL of overnight grown bacterial cells with an equal volume of purified enzyme at the desired concentration. Bacterial cells were washed with PBS and resuspended in a 1:1 ratio with enzyme to an OD600 of approximately 1.0. Next, the OD600 was measured using a Tecan infinite 200 PRO plate reader (Tecan, Switzerland) every 15 seconds at 37° C., shaking the 96-well plate between each measurement.
Time killing and turbidity reduction assays were performed as previously described in 1.3.1.

[2] = test system: S. uberis, S. aureus, S. agalactiae and S. dysgalactiae; test: 2 h time killing assay in PBS and UHT-milk, relative in vitro scoring; assay type: cell-based; conditions: 0.25 μM
Experimental: as §1, with “The dose was low (i.e. 0.25 μM), but this was chosen to differentiate between less and better performing variants, consequently allowing a ranking.” left out
Stationary phase S. uberis 0140J or S. aureus N305 and one randomly chosen clinical isolate of S. uberis, S. aureus, S. agalactiae and S. dysgalactiae were challenged with a final concentration of 0.25 μM endolysin in a 2 h time killing assay (TKA) in both phosphate buffered saline (PBS) and ultra-high temperature pasteurized whole cow's milk (UHT-milk).

B1: NC5: chimeric endolysin SEQ ID NO: 17; HIV-1 TAT + PlySs2 CHAP + Ply1081 CW_7 + PlySs9 amidase_3 (protein)
chain: MYGRKKRRQRRRGATTVNEALNNVRAQVGSGVSVGNGECYALASWYERMISPDATVGLGAGVGWVSGAIGDTISAKNIGSSYNWQANGWTVSTSGPFKAGQIVTLGATPGNPYGHVVIVEAVDGDRLTILEQNYGGKRYPVRNYYSAASYRQQVVHYITPPGTVAQSAPNLAGAGIDQLVQETLAGKYGNGEQRKAALGSQYQAVMAVINGKATAPKKTVDQLAQEVIQGKHGNGEDRKKSLGPDYDAVQKRVTEILKGSPSGNIPKTPSDAPKSEVVNSSTEPKTEETGANGKATDTKITKGSGKHLVICGHGQGRTGYDPGAVNAKLGITEAGKVRELSKLMSKYSGQQIDFITEQNVYDYRSITSIGKGYDSITELHFNAFNGSAKGTEVLIQSSLEADKEDMAILSLLSRYFQNRGIKKVDWLYNANQAASRGYTYRLVEIAFIDNEQDMAIFENKKEDIAKGLVSAITGVEVKTIVPSPPSSTVGSSGTPSKSIYLVGDSLRVLPHATHYQTGQKIANWVKGRTYKILQVKNVHQSNSKRAYLLDGIKSWVLEQDVEGTTKGHSKYHHHHHH
With B1 the “stability after incubation with MAC-T cells (SDS-PAGE of supernatant)” value (MAC-T cells) was “neither disintegrated nor precipitated after incubation with MAC-T cells”, the “lysis in comparative TRA versus NC3 and NC8” value ([1]; 0.5 μM, S. uberis 0140J) was “lysed the bacterial cells faster and resulted in a higher reduction of the OD600” and the “lysis speed (ΔOD600/min)/μM” value ([1]; Clinical S. uberis 1 (Unknown ST and GCC), 0.3 μM) was 0.06 (ΔOD600/min)/μM. For the same molecule, the ΔOD600 ([1]; Clinical S. uberis 1 (Unknown ST and GCC), 1 h, 0.3 μM) was 0.42, the “lysis speed (ΔOD600/min)/μM” value ([1]; Clinical S. uberis 2 (Unknown ST, GCC 5), 0.3 μM) was 0.11 (ΔOD600/min)/μM and the ΔOD600 ([1]; Clinical S. uberis 2 (Unknown ST, GCC 5), 1 h, 0.3 μM) was 0.38. The “lysis speed (ΔOD600/min)/μM” value ([1]; Clinical S. uberis 3 (Unknown ST, GCC 5), 0.3 μM) was 0.44 (ΔOD600/min)/μM, the ΔOD600 ([1]; Clinical S. uberis 3 (Unknown ST, GCC 5), 1 h, 0.3 μM) was 0.62 and the “lysis speed (ΔOD600/min)/μM” value ([1]; Clinical S. uberis 4 (ST 815, GCC 143), 0.3 μM) was 0.05 (ΔOD600/min)/μM. For the same molecule, the ΔOD600 ([1]; Clinical S. uberis 4 (ST 815, GCC 143), 1 h, 0.3 μM) was 0.63, the “lysis speed (ΔOD600/min)/μM” value ([1]; Clinical S. uberis 5 (ST 944, GCC 5), 0.3 μM) was 0.21 (ΔOD600/min)/μM and the ΔOD600 ([1]; Clinical S. uberis 5 (ST 944, GCC 5), 1 h, 0.3 μM) was 0.59. For the same molecule, the ΔOD600 ([1]; S. uberis 0140J, 0.3 μM) was 0.57±0.00, the “lysis speed (ΔOD600/min)/μM, NC5 pairwise versus NC2” value ([1]; S. uberis (sub)clinical isolates, 0.3 μM) was “significantly (p <0.01) faster” and the “lysis speed (ΔOD600/min)/μM” value ([1]; Subclinical S. uberis 1 (ST 808, GCC 143), 0.3 μM) was 0.43 (ΔOD600/min)/μM. The ΔOD600 ([1]; Subclinical S. uberis 1 (ST 808, GCC 143), 1 h, 0.3 μM) was 0.66, the “lysis speed (ΔOD600/min)/μM” value ([1]; Subclinical S. uberis 2 (Unknown ST and GCC), 0.3 μM) was 0.11 (ΔOD600/min)/μM and the ΔOD600 ([1]; Subclinical S. uberis 2 (Unknown ST and GCC), 1 h, 0.3 μM) was 0.65. For the same molecule, the “lysis speed (ΔOD600/min)/μM” value ([1]; Subclinical S. uberis 3 (Unknown ST, GCC 5), 0.3 μM) was 0.39 (ΔOD600/min)/μM, the ΔOD600 ([1]; Subclinical S. uberis 3 (Unknown ST, GCC 5), 1 h, 0.3 μM) was 0.53 and the “lysis speed (ΔOD600/min)/μM” value ([1]; Subclinical S. uberis 4 (Unknown ST and GCC), 0.3 μM) was 0.28 (ΔOD600/min)/μM. For the same molecule, the ΔOD600 ([1]; Subclinical S. uberis 4 (Unknown ST and GCC), 1 h, 0.3 μM) was 0.42 and the “ranking by cumulative relative in vitro score” value [2] was “overall best performing candidates”.
